The record followed here is publication PMC5034880.

The target of this series is T1, PGL-3 (1-633)-6xHis-mEGFP (ΔRGG) (Caenorhabditis elegans, UniProt G5EBV6 1-633).
T1 sequence: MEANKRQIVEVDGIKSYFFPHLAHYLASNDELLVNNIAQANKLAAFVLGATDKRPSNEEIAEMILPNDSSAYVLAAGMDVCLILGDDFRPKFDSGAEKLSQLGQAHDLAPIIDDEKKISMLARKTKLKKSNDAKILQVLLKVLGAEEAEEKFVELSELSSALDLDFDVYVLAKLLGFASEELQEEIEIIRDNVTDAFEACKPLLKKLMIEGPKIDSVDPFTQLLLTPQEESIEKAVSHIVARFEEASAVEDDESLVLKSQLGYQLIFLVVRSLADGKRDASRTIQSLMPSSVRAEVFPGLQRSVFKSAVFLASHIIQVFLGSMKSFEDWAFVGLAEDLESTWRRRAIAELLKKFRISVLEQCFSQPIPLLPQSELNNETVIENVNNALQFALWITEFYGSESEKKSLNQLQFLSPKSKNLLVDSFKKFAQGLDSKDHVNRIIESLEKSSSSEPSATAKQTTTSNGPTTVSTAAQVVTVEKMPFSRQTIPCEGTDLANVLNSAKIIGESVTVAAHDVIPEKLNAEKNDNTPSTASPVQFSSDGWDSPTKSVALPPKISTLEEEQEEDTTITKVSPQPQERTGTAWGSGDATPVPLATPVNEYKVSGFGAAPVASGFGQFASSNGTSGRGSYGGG
Description: filter binding.

Regarding GUUGUUGUUGUUGUUGUUGUUGUUGUUGUUAAAAAAAAAA (ssRNA) [(GUU)10A10 RNA], the binding signal was > 60 fold weaker than full-length PGL-3.
